Measurements taken from the DeepSol protein solubility set.

Test: soluble on expression in E. coli; label from the status in PepcDB or PDB records

Row | Sequence | soluble on expression in E. coli
1 | MSLKILFASSESYPFIKTGGLGDVSYALPKALRKIGIDARVIIPKYSDIPEYFRYNTHHIASFGVPVGWRSQYGGLEYYEYDGVPFYFIDNDYYFKRSGLYGYYDDGERFAYFSRGVLQAITYMQDFNPDIIQCNDWQTAIIPVLLKDHYRNYRNYNHIKTIFTIHNLKYQGVFGKSVLGELLCLNEGYYNENALKFYDGISFMKGGILFSDKLSTVSRTYAEEIKDPYYGEHLDGLLRSRSYDLWGIVNGIDYDILNPETDKDLFFNFDSSTLYNKTKNKIELQKMLNLPVSENIPMIGIVSRLVSQKGLDLISCVLEDLLQDGIQLVVLGTGDAKYENMFKYFAWKYPNKLSANIQFNNSLAQKIYGASDMFLMPSKFEPCGIGQLIALRYGSLPIVRETGGLKDTVRPFNPITGEGNGFSFTNYNAHDMLHVIRNAEYFYYNEKYNWNKLVQTAMNDDNSWSKSAEIYRNLYMSVLEGHHHHHH | not soluble
2 | MSLKISVIIPIYNAENYIEKAFSSLKNQTLAQNEFEILCIDDKSTDNSLGKLKQLSKIHKNMRIINLHKNSGGPMIPRNKGIKEAKGKYIIFLDNDDYLGEEALERLFIQAEKNQSEVIFGKYVGINGRGVPQSQFKKGNRNEADILADNLVYTLAPHKMFQTAFLKTKKIYFDPNILIGEDQYFVMKAYVNAKVITVLADYDYYYVVSRGDENLSIKESKMDPREICKVVPAVVKEIEASPLHPTYKKTLIRAYIQRYFNDYITGNYNLDYKNMSERQKTFVQVMKDTIVCHLDEKMKNELPTKTRFMIDIIAENNPEKLIDVRMQMENFSKNQVVKVENGYIKGRFRKMRPQLAYDDVYDINHLNSSKVQLHSVTLQNNNYLLDISLEQSLLTRFQTALRLCLKERDGNLEIWISPLKMLSTERGIYAVDSTLFNHTCIWDLFIESEINGFKNRKRVGKDRDFEEIVSSNNTPLLIQNNSYQIKAYFTTPFSNLSFQIISEEGHHHHHH | soluble
3 | MSLKITWLGHAAFLLEGSMKVLIDPFLTGNPNAPVKPEEVKADYILVTHGHGDHLGDAVEIAKRNNAPIICIHELSRILSRYDVETMGMNMGGTARTGSIAVTMVPAWHSADLEDEQGNIISAGLPAGFIVSMDGVRVYHTGDTDVFLDMQLIGELHRPDVMLLPIGDYYTMGIAGAVKALELVKPKVAIPMHYNTFPLVEKDPEDFRKAVKAKGLDVEVVILKPGESYEFNKEGGSHHHHHH | soluble
4 | MSLKIVIIGGVAGGMSAATRLRRLMEDAEIVVMEKGPFVSFANCGLPYYVSGEIAEREQLLVQTPEALKARFNLDVRPHHEVVAIDPIEKVITVKHETEILTEHYDKLILSPGAKPFVPPITGLAEAKNVFSLRNVPDLDQIMTALTPETKRAVVIGAGFIGLEMAENLQKRGLEVTLVEKAPHVLPPLDEEMAAFVKAELSKNNVQVITGQSAVAFEEEGQVIRLEDGQTLASDLTILSVGVQPENTLAVEAGVATGLRGGIVVDEHYQTNQPDIYAVGDAIVVKQQITQEDALISLASPANRQGRQVADVIAGLERKNQGSIGTAIVRVFDLTAASTGLSERAAKAAGLTTAVVHISGKDHAGYYPGATDLQLKLVFHPTTGEIYGAQGIGAKGVDKRIDILATAIKGQLTIFDLPELEFTYAPPFGSAKDPVNMLGYAAMNLVEGLSENVQWYELSNELANGAVLLDVRNPAERANGQFKNAVSIPLNELRERLEELDKSTEYIVSCHSGLRSYIAERMLKQAGISAKNLDGAFALYRMVKPEELENEGHHHHHH | soluble
5 | MSLKKSFLLLPLSLVVLSACTSNFPAPISDADGNFSPSVIQSVNGSNVGGAWQPEIQKNSLPTTGNMVTPQQNFQPINQQPTMPTAPAQPAFQPSPKTVVSAPTVQTKTVTKTVADCVDGQHINIPRNPNTNAPDYSKISKGSYKGNTYKVNKGDTMFLIAYLAGIDVKELAALNNLSEPYNLSLGQVLKISNCDIKTVTTTVSVKQPAVTASTATPVKPAVTYTPGANGTQIGSDGTIIGPIKSEAGTSPSVPVATSSTQVTSSVNNANSTPINSNVVAPIASNVVWQWPTSGNIIQGFSSTDGGNKGIDISGSRGQAVKAAAAGRIVYAGNALRGYGNLIIIKHNDDFLSAYAHNDKILVADQQEVKAGQDIAKMGSSGTNTVKLHFEIRYKGKSVDPVRYLPRHEGHHHHHH | not soluble
6 | MSLKKVKCITGMISLQGKRPTNEDTEIVKDKIKKDKIKFGLYAVFDGHGGSGTSQAAISVVEEELMKSELMKKKMYEEMMNEIFSKSDKILCNTVYDNSGCTAAVVLVIGRFLICANVGDSEVLVISEGKQYEVLSVQHKAKLPDEKKRITSLGVPVYGGRVYGSLAVSRSLGDKQYKGGRGAVISTPHVKVYEMTKKDKAFVISCDGIYETLNYDDVVDWVITGMKLNKAPTIIAENIAMDALEKGSKDNVSVIVSLLKWKEGHHHHHH | not soluble
7 | MSLKKYLGIIVDAVSRRQFKGEITVENGKILRVEEKEHDHERYILPGLVDAHVHIESSMTVPSVFARMAVAKGTVAVVSDPHEIANVMGEEGIDFMLGDSKRSPLKVFFGVPSCVPATPFESAGSVLDAEAVDRLLAREDLYYLSEMMNFPGVVLGFPDVMAKLESAKKCGKVIDGHAPGLRGADLETYIGVGISTDHESFTYEEAVEKIKLGMKILIREGSSARNFETLYSLIDEYPEAVMLCTDDSHPDTLIYEGHIDKLIRRGQEKGLDIFNLIRAAVINPVEHYGLNVGLLREGDPADFITVDDLKSFNVLSTFIDGECVYENGEGHHHHHH | soluble
8 | MSLKLIATDLNGTLLHQDQGFNQPLLKETLSQLKQRGIRLVLASGNQYAHLKEVFREIWSTDLAVIAENGASIYLGDELVFDGSLTPQQVRLFLSATAQDEFLQNAYLILVGAQGSYTRVGAPAPLIAAAEKFYDHLQQVMSLETVTDRIKKISVSTAPEQAAALVQHLNQRFTGQLRAHDSGYGVIDVVSLHVGKLPAVQWLAQHWQIPATEIVAFGDGANDVPLLNYAGQSYAMKNAPVDIQAQAKHVTVWDNDRDGVLRTIATLLVADEGHHHHHH | soluble
9 | MSLKLKTLALSLLAAGVLAGCSSHSSNMANTQMKSDKIIIAHRGASGYLPEHTLESKALAFAQHSDYLEQDLAMTKDGRLVVIHDHFLDGLTDVAKKFPYRHRKDGRYYVIDFTLKEIQSLEMTENFETKDGKQAQVYPNRFPLWKSHFRIHTFEDEIEFIQGLEKSTGKKVGIYPEIKAPWFHHQNGKDIATETLKVLKKYGYDKKTDMVYLQTFDFNELKRIKTELLPQMGMDLKLVQLIAYTDWKETQEKDPKGYWVNYNYDWMFKPGAMAEVVKYADGVGPGWYMLVNKEESKPDNIVYTPLVKELAQYNVEVHPYTVRKDALPEFFTDVNQMYDALLNKSGATGVFTDFPDTGVEFLKGIKEGHHHHHH | soluble
10 | MSLKLVFYGAGNMAHAIFTGIVNSKVIDSNDIYLTNRSNEVALKEYAEKLGVNYSYDDEALLKAADYVFLGTKPYDFESLAERIKPFITDKNKFISIMAGLPISYIREKLEADNPIARIMPNTNAHVGHSVTGISFSSNFGPNSKDEVDELINAFGSAIEVPEDNLHQVTAITGSGPAFLYHVFEQYVTAGTRLGLEKAQVEESIRNLIIGTSKMIERSELSMEQLRKNITSKGGTTQAGLNALSQHDLESVFEDCLRAAVDRSVELSSQDEGHHHHHH | soluble
11 | MSLKLVKPKKFLGQHFLKDLKVAQDIADTVDTFPELPVLEVGPGMGVLTQFLVKKDRLVKVVEVDYESVAYLREAYPSLEDHIIEDDFLKMNLHRLFDGKPFVLTGNYPYNISSQIFFKMLENKDIIPCCTGMIQKEVAERIAAGPGSKTYGILSVLIQAWYKVEYLFTVSEHVFNPPPKVKSAVIRMTRNDTKEGHHHHHH | not soluble
12 | MSLKLYYCRGACSLVVRIILNDLGLNFQDEEVDLKVKKTAGGDDFFKINPKGAVPTLVLDNGDILTENQVILQYLADTTPGQKLLAAVGESKRYHTLEWLNYISTELHKSLGMFFNPTVSEEIKSKILTPLVMTRFAYTNTRLEKGSYLMGNEFSLPDAYLFVMVSWAKYFKLDLSQFEHLTKFMDLMLARSSVAKSLQQEKLEGHHHHHH | soluble
13 | MSLKNIFSVLEERVERTPDDNLVEYKNAQGEWAAFTAAEFKNKVVALAKGLIARGVMPGDSVSIIAHTCWQWTALDVAIMSIGALTVPVYETNSPAQVKMIFNDANVKMAFAEDDFQRDKIESVRDQCPDLGDVYVIGLGAIDTIIEYGRAVSDAEFLEREQAVKGSDLATIVYTSGSTGTPKGVELTHANFVFITYSGVNSMPDIAMKPNRRLLLFLPLAHVFARYMQFFCFAGNVSLGLSSNLKTILADFKAFKPTFILAVPRIFEKIYNAASQKAGAGFKGRVFADATQTACDWSHAQQSGGSIPLALNAKHALYNKLVYSSIMEVFGGHVEYAVSGGAPLDSSIAHFFNGVGLSLLEGYGMTETCAPSSVNPTEGYKIGTIGLPLQGVTMGVDEEGELCIKSPAVCAGYHNNPDVTKQQIVDGWLHTGDLGSIDDDGFVSIVGRKKDLIITAGGKNVSPCEMEASIMTSPVVSQCVMIGDRKPFIAAIISLDLAETNLWLESKGAEQVADLDEASKNPIVRAEVERAVNKANELASRAESIRKFEIVPDEFTEENGLVTPSMKARRQAVVEHYRTLIDKEGHHHHHH | not soluble
14 | MSLKPQVYHVDAFTSQPFRGNSAGVVFPADNLSEAQMQLIARELGHSETAFLLHSDDSDVRIRYFTPTVEVPICGHATVAAHYVRAKVLGLGNCTIWQTSLAGKHRVTIEKHNDDYRISLEQGTPGFEPPLEGETRAAIINALHLTEDDILPGLPIQVATTGHSKVMIPLKPEVDIDALSPDLNALTAISKKIGCNGFFPFQIRPGKNETDGRMFSPAIGIVEDPVTGNANGPMGAWLVHHNVLPHDGNVLRVKGHQGRALGRDGMIEVTVTIRDNQPEKVTISGTAVILFHAEWAIELEGGSHHHHHH | soluble
15 | MSLKQRPNVLLIVLDTARARTVLPGLESGLMPTLSRIASDGTTFTDATATAPWTLPSHAGMFTGKYTSSHGVHAGNHIFDPDSEPLASRISNAGYRTAGISGNVWISPEFGFDAGFDEFSMKWDLFWDAPELSSVISNRNTTATGDTILDVFRGQGPVDLLKGTLTTGYAKFLAERHDDGAHHTTSRTVEWLEQNGTEDDPFFYFLNYVEPHLPYEPPAPFLDEYLPDGADPSRVSDLNQDPWQYVAGDQELTDADVEIFKGLYEAELAYLDTQLERLYDTLAEQCILDETAIILVGDHGENIGEHGLMDHQYCLYETLIHVPLVIRYPELFDEEEVSGPVELRDLYPTVTDLAGAEQPADTDVSTHSLVPRDGTVPVRDRAIAEYLVPQPSMDSLREAVESFDEAATRFDRPLRAIKTTDWKFIEAPDDTELYDRDDDPIEWIDVASIHPDICELLGTDLRDELGRLARGTSDSNTISANKKERLEDLGYLQ | not soluble
16 | MSLKQYETIILHRHVRPDPDAYGSQMGLAEIIRASFPEKKVYSVGNDEKSLQFLGIVDEITDEIYKDALVIVCDTANQERISDGRFNLGKALIKIDHHPNDDAYGDLLWVDTTASSCSEMIVAFWEMFSDELILNETAARLLYAGIVGDTGRFLYPSTTEETLRLSAHLVTFPFDRPALYRELYELPKNTVKLSGYILQNFVMDENGAATVYLSDTLLNEFEVDPRDASALVSCIENVKGIKAWIMFIQEGPVFRARLRSKGPVINELAKEYGGGGHPLASGATLHNEEEIKEMTAKLQRIEGHHHHHH | not soluble
17 | MSLKREIILYKSISTDLLEQLKNRFIVHQHQLKSEMDDSFFSDLQRVEGIIGSKLRVDGHLLDQAPHLKIVTNISVGYDNLEIEELTKRGIMATNTPDVLTDTVADTVFGLLLATSRRICELDQYVKLGRWDENIGEHLFGVDVHHKTLGIIGMGRIGLAVAERAHYGFKMKIVYHNRSTHSYAEKNINATYASLEELLTVSDFVLVMAPLVPETVKLIGEKEFDLMKETAIFLNGSRGELVDELALIHALQSKKIWGAGLDVYEQEPISKESLLLQLKNVVTLPHIGSATRETRYKMAKLAVDNLMKGFTGEVPPSLINPDVLTDEGHHHHHH | not soluble
